T1: Ac-YHSNGYRARVRA-NH2 (human)
T1 peptide: Ac-YHSNGYRARVRA-NH2

T2: Biotin-SGSTLDLYHSNGYRARVRAVDG-NH2 (human, N-terminal biotin, C-terminal amide (-NH2))
T2 peptide: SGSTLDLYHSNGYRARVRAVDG

T3: Ac-SIFSHFREYE-NH2 (human)
T3 peptide: Ac-SIFSHFREYE-NH2

T4: Ac-GNFTFTHKKV-NH2 (human)
T4 peptide: Ac-GNFTFTHKKV-NH2

T5: Biotin-SGSTYSIFSHFREYEIAIRKV-NH2 (human, N-terminal biotin, C-terminal amide (-NH2))
T5 peptide: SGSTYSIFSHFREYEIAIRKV

T6: Ac-TVTNTRFSVD-NH2 (human)
T6 peptide: Ac-TVTNTRFSVD-NH2

T7: Ac-SVASRSNKGM-NH2 (human)
T7 peptide: Ac-SVASRSNKGM-NH2

T8: mouse IL-10Rα on splenocytes (mouse, UniProt Q61727 17-575)
T8 construct: whole, on cells
T8 sequence (looked up): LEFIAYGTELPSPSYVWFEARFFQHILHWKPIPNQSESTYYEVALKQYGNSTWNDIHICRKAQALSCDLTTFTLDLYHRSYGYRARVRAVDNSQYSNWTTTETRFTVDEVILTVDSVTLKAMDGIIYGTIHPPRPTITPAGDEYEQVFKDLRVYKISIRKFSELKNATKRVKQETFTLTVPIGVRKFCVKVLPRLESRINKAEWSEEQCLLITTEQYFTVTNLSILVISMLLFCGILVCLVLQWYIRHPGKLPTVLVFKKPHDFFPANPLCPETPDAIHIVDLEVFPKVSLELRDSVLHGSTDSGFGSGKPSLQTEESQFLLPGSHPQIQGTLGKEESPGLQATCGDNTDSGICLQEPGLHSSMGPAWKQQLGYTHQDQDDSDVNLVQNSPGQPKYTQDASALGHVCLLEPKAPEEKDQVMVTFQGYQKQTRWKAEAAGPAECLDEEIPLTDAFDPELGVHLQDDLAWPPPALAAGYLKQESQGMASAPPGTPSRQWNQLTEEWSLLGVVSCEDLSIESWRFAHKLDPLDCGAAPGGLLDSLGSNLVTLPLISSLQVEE

T9: cynomolgus macaque IL-10Rα on PBMC (cynomolgus macaque, UniProt Q13651 22-578 (human entry))
T9 construct: Full-length entry cloned from cynomolgus T cells; endogenous on primary PBMC in the assays; also called IL-10Rα on the surface of cynomolgus lymphocytes and monocytes
T9 chain: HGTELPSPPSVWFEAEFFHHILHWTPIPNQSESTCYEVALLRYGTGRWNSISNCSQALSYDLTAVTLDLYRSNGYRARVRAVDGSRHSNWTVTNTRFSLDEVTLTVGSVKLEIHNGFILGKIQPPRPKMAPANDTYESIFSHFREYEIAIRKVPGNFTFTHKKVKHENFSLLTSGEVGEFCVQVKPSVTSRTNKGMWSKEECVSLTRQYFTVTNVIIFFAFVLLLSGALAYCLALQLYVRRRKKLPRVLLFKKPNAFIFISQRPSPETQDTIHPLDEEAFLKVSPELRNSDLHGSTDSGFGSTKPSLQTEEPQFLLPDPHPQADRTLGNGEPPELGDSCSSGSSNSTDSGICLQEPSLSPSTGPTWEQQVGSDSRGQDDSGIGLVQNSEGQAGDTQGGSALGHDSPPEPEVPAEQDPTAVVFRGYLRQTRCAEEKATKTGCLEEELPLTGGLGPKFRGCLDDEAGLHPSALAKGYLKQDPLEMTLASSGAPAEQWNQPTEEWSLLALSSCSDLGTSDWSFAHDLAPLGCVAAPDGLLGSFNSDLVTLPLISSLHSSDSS

T10: human IL-10Rα on cells (human, UniProt Q13651 22-578)
T10 construct: Full-length entry with signal peptide; endogenous on PBMC and RPMI-8226 cells, transfected in EL-4 and CHO-K1 cells; also called IL-10R on RPMI-8226 cells; IL-10Rα on human PBMC, lymphocytes and monocytes
T10 sequence: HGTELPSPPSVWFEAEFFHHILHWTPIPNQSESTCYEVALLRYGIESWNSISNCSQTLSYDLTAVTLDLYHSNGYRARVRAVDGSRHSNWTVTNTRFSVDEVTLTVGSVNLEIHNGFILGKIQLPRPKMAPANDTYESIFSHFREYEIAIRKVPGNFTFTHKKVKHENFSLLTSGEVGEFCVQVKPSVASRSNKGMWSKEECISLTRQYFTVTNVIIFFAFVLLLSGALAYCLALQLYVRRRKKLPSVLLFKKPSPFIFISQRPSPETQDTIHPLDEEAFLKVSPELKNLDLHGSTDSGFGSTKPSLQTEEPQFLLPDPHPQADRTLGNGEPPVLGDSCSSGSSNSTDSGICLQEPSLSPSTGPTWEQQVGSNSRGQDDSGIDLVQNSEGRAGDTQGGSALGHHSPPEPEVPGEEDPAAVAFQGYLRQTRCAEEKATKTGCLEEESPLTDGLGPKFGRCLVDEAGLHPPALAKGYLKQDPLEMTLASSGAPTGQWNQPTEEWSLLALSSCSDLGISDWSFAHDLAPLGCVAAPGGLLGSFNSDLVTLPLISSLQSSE


What was measured:
[1] = target: T11, cynomolgus macaque IL-10Rα extracellular domain fused to the Fc portion of human IgG1 (cynomolgus macaque); assay: ELISA, coated cynomolgus IL-10Rα:hFc
T11 construct: The entry includes the signal peptide; also called cynomolgus IL-10Rα:hFc; cyIL-10Rα
From the text: Titration of anti-IL-10Rα antibodies binding to coated chimp or cynomolgus IL-10Rα:hFc. Binding was detected with anti-human kappa-HRP, anti-mouse IgG-HRP, or anti-rat IgG-HRP. Different anti-rat-IgG HRP and anti-mouse IgG antibodies were used to generate the data in panels A and B. The nature of these secondary antibodies can affect the results and lead to different maximum binding (BMAX). The BMAX from these studies are described in Table 5.
IL-10Rα Specific Antibody Detection ELISA: Antibody titers, specificity, and production by hybridomas were determined by ELISA. In brief, 96 well flat bottom Maxisorb plates were coated with 50 μl of hIL-10Rα (R&D Systems, Minneapolis, Minn.) at 1 μg/ml in carbonate buffer (pH 9.4) overnight at 4° C. or at 37° C. for 1 hour. After washing three times with PBS/0.05% Tween 20, plates were blocked with Superblock blocking buffer in TBS (Pierce) at room temperature for 30 minutes. The serum, supernatant, or purified antibody was diluted in blocking buffer, added to the wells, and the plates were incubated for 1 hour at room temperature. The plates were washed 3 times with PBS/0.05% Tween 20 and peroxidase-conjugated goat anti-human IgG (Fcγ specific), anti-rat IgG, or anti-mouse IgG detection antibodies (Jackson Immunoresearch) were added at a dilution of 1:5000. Multiple lots of anti-rat and anti-mouse IgG antibodies were used in different assays. […] Following a 1 hour incubation at room temperature, the plates were washed and the TMB (Sigma) substrate was added and incubated at room temperature for 5 to 10 minutes. The reaction was stopped with H₂SO₄ (LabChem) and the optical density was measured at 450 nm by a microplate reader. A second ELISA protocol using soluble human, chimp and cynomolgus IL-10Rα:hFc recombinant proteins as the coating antigens was also employed. In this assay, binding of specific human IgG were detected with a peroxidase labeled sheep anti-human kappa antibody (The Binding Site, Birmingham, UK).

Ac-YHSNGYRARVRA-NH2 = target: T1, Ac-YHSNGYRARVRA-NH2; assay: dot blot on PVDF or nitrocellulose membrane
Procedure: (§1) Methods to detect antibody binding to peptides derived from the human IL-10Rα sequence: Multiple methods were employed to detect binding of anti-human IL-10Rα antibodies to peptides derived from the extracellular domain of human IL-10Rα that have been reported by Reineke, et al. (Reineke, et al., Protein Sci 7:951 (1998)) to be included in the IL-10 binding site of the receptor. The following amide synthesized peptides were tested: Ac-[…]-NH2, Ac-[…]-NH2, Ac-[…]-NH2, Ac-[…]-NH2, Ac-[…]-NH2 (SEQ ID NO. 81-85). In addition, the following biotinylated peptides were tested: Biotin-[…]-NH2, Biotin-[…]-NH2 (SEQ ID NO. 86-87). The amide peptides were synthesized by A&A Labs, LLC (San Diego, Calif.) and the biotinylated peptides were synthesized by GenScript (Piscataway, N.J.) both at >95% purity and reconstituted at 20 mg/ml in DMSO. In one assay design peptides were spotted at 5 μg/spot in PBS onto PVDF membranes or nitrocellulose membranes that had been prepared according to the manufacturer's instructions. The membranes were incubated with anti-IL-10Rα antibodies using standard Western blotting methods (e.g. Towbin, et al., Proc Natl Acad Sci 76:4350 (1979)). Native human IL-10Ra:hFc and heat denatured human IL-10Ra:hFc were also spotted at 1 μg/spot on the membranes as controls. Negative controls included an irrelevant peptide and isotype controls. […] None of the antibodies bound to the spotted denatured protein or to any of the peptides derived from the human IL-10Ra extracellular domain or the irrelevant peptide.

[2] = target: T2, Biotin-SGSTLDLYHSNGYRARVRAVDG-NH2; assay: dot blot on PVDF or nitrocellulose membrane
Procedure: as §1

Ac-SIFSHFREYE-NH2 = target: T3, Ac-SIFSHFREYE-NH2; assay: dot blot on PVDF or nitrocellulose membrane
Procedure: as §1

Ac-GNFTFTHKKV-NH2 = target: T4, Ac-GNFTFTHKKV-NH2; assay: dot blot on PVDF or nitrocellulose membrane
Procedure: as §1

[3] = target: T5, Biotin-SGSTYSIFSHFREYEIAIRKV-NH2; assay: dot blot on PVDF or nitrocellulose membrane
Procedure: as §1

Ac-TVTNTRFSVD-NH2 = target: T6, Ac-TVTNTRFSVD-NH2; assay: dot blot on PVDF or nitrocellulose membrane
Procedure: as §1

Ac-SVASRSNKGM-NH2 = target: T7, Ac-SVASRSNKGM-NH2; assay: dot blot on PVDF or nitrocellulose membrane
Procedure: as §1

[4] = target: T8, mouse IL-10Rα on splenocytes; assay: flow cytometry on splenocytes
[5] = target: T9, cynomolgus macaque IL-10Rα on PBMC; assay: flow cytometry on cynomolgus PBMC
human IL-10Rα on cells = target: T10, human IL-10Rα on cells; assay: flow cytometry on RPMI-8226 cells; biotinylated human IL-10, streptavidin-FITC [B]
From the text: RPMI-8226 cells were stained with human IL-10 biotin followed by anti-human IL-10Rα antibodies, and binding of antibodies was detected with anti-human IgG-PE or anti-rat IgG-PE. A) Filled histograms represent the maximum binding of the antibodies in the absence of IL-10, the open histograms are in the presence of human IL-10; B) Maximum IL-10 binding (closed histogram) is inhibited by anti-IL-10 (open histogram.) The shaded histogram represents binding of a negative control protein. Binding of IL-10 was detected with streptavidin-FITC.
IL-10 Blocking Assay: To determine if the anti-human IL-10Rα antibodies were blocked by binding of IL-10 to the receptor on the cell surface, a flow cytometric protocol was used. In the flow cytometric assay, RPMI-8226 cells were washed and resuspended in staining buffer and then incubated with biotinylated human IL-10 or a negative control protein (R&D Systems) for 30 minutes on ice. The anti-IL-10Rα antibodies were then added to the cells for an additional 30 minutes. […] After another wash, the cells were fixed with 1% paraformaldehyde and analyzed on a FACS Calibur. The fold reduction in antibody binding was determined using the geometric mean fluorescence intensity in the following formula: Fold reduction=geometric mean fluorescence intensity in the absence of IL-10/geometric mean fluorescence intensity binding in presence of IL-10.

BMAX [1] [OD]	binding result (Ac-YHSNGYRARVRA-NH2)	binding result [2]	binding result (Ac-SIFSHFREYE-NH2)	binding result (Ac-GNFTFTHKKV-NH2)	binding result [3]	binding result (Ac-TVTNTRFSVD-NH2)	binding result (Ac-SVASRSNKGM-NH2)	binding result [4]	binding result [5]	binding result (human IL-10Rα on cells)	Binder
1.31	no binding (tested: 5 µg/spot)	no binding (tested: 5 µg/spot)	no binding (tested: 5 µg/spot)	no binding (tested: 5 µg/spot)	no binding (tested: 5 µg/spot)	no binding (tested: 5 µg/spot)	no binding (tested: 5 µg/spot)	no binding	binds	–	136D29 (antibody, V domains shown, Hybridoma antibody, human IgG4, kappa light chain #2 (the chain identified as correct); also called human anti-human IL-10Rα monoclonal antibody 136D29; 136D9 [sic]) VH: QVQLVQSGAEVKKPGASVKVSCKVSGFTLTELSMHWVRQAPGKGLEWMGGFDPDDGETIYAQKFQGRVSMTEDTSTDTAYMELSSLRSEDTAVYYCATGGYYGPVGMDVWGQGTTVTVSS VL: DIQMTQSPSSLSASVGDRVTITCRASQGISIWLAWYQQKPEKAPKSLIYAASSLQSGVPSRFSGSGSGTDFTLTISSLQPEDFATYYCQQYNSYPLTFGGGTKVEIK
–	–	–	–	–	–	–	–	–	–	binds	recombinant human IL-10 (ligand, UniProt P22301 19-178, looked up, also called human IL-10 biotin) SPGQGTQSENSCTHFPGNLPNMLRDLRDAFSRVKTFFQMKDQLDNLLLKESLLEDFKGYLGCQALSEMIQFYLEEVMPQAENQDPDIKAHVNSLGENLKTLRLRLRRCHRFLPCENKSKAVEQVKNAFNKLQEKGIYKAMSEFDIFINYIEAYMTMKIRN

Source: patent US20110144312A1 (Kyowa Kirin, published 2011)
